Results reported in US20160347802A1 (MAX PLANCK GESELLSCHAFT ZUR FOERDERUNG DER WISSENSCHAFTEN E …, published 2016).

T1: human DRAXIN, AVEXIS prey or bait protein (human, UniProt Q8NBI3 26-349)
T1 sequence: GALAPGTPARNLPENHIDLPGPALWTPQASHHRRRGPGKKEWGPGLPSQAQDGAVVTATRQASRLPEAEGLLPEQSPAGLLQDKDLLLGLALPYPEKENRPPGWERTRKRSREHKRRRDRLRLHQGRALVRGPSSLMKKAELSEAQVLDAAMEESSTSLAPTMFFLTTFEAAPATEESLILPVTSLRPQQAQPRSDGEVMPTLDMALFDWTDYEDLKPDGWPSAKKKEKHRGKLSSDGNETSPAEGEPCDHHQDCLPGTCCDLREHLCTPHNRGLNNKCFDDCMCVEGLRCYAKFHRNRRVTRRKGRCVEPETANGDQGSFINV

T2: human DRAXIN 21 amino acid Netrin binding fragment, AVEXIS prey or bait protein (human)
T2 construct: Tested in both bait and prey orientations; also called human 21 amino acid DRAXIN fragment; derived 21 amino acid peptide; not shown: AVEXIS tag (rat Cd4d3+4 and prey or bait module)
T2 peptide: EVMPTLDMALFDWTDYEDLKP

B1: human Netrin-G1, AVEXIS protein (ligand, UniProt Q9Y2I2 29-510, looked up)
chain: HYDLCKTQIYTEEGKVWDYMACQPESTDMTKYLKVKLDPPDITCGDPPETFCAMGNPYMCNNECDASTPELAHPPELMFDFEGRHPSTFWQSATWKEYPKPLQVNITLSWSKTIELTDNIVITFESGRPDQMILEKSLDYGRTWQPYQYYATDCLDAFHMDPKSVKDLSQHTVLEIICTEEYSTGYTTNSKIIHFEIKDRFAFFAGPRLRNMASLYGQLDTTKKLRDFFTVTDLRIRLLRPAVGEIFVDELHLARYFYAISDIKVRGRCKCNLHATVCVYDNSKLTCECEHNTTGPDCGKCKKNYQGRPWSPGSYLPIPKGTANTCIPSISSIGNCECFGHSNRCSYIDLLNTVICVSCKHNTRGQHCELCRLGYFRNASAQLDDENVCIECYCNPLGSIHDRCNGSGFCECKTGTTGPKCDECLPGNSWHYGCQPNVCDNELLHCQNGGTCHNNVRCLCPAAYTGILCEKLRCEEAGSCGS
notes: not shown: AVEXIS tag (bait or prey)
B2: human Netrin-4, AVEXIS protein (ligand, UniProt Q9HB63 19-628, looked up)
chain: GLSGVAGVSSRCEKACNPRMGNLALGRKLWADTTCGQNATELYCFYSENTDLTCRQPKCDKCNAAYPHLAHLPSAMADSSFRFPRTWWQSAEDVHREKIQLDLEAEFYFTHLIVMFKSPRPAAMVLDRSQDFGKTWKPYKYFATNCSATFGLEDDVVKKGAICTSKYSSPFPCTGGEVIFKALSPPYDTENPYSAKVQEQLKITNLRVQLLKRQSCPCQRNDLNEEPQHFTHYAIYDFIVKGSCFCNGHADQCIPVHGFRPVKAPGTFHMVHGKCMCKHNTAGSHCQHCAPLYNDRPWEAADGKTGAPNECRTCKCNGHADTCHFDVNVWEASGNRSGGVCDDCQHNTEGQYCQRCKPGFYRDLRRPFSAPDACKPCSCHPVGSAVLPANSVTFCDPSNGDCPCKPGVAGRRCDRCMVGYWGFGDYGCRPCDCAGSCDPITGDCISSHTDIDWYHEVPDFRPVHNKSEPAWEWEDAQGFSALLHSGKCECKEQTLGNAKAFCGMKYSYVLKIKILSAHDKGTHVEVNVKIKKVLKSTKLKIFRGKRTLYPESWTDRGCTCPILNPGLEYLVAGHEDIRTGKLIVNMKSFVQHWKPSLGRKVMDILKRECK
notes: as for B1
B3: human Netrin-G2, AVEXIS protein (ligand, UniProt Q96CW9 18-507, looked up)
chain: DYDICKSWVTTDEGPTWEFYACQPKVMRLKDYVKVKVEPSGITCGDPPERFCSHENPYLCSNECDASNPDLAHPPRLMFDKEEEGLATYWQSITWSRYPSPLEANITLSWNKTVELTDDVVMTFEYGRPTVMVLEKSLDNGRTWQPYQFYAEDCMEAFGMSARRARDMSSSSAHRVLCTEEYSRWAGSKKEKHVRFEVRDRFAIFAGPDLRNMDNLYTRLESAKGLKEFFTLTDLRMRLLRPALGGTYVQRENLYKYFYAISNIEVIGRCKCNLHANLCSMREGSLQCECEHNTTGPDCGKCKKNFRTRSWRAGSYLPLPHGSPNACATAGSFGNCECYGHSNRCSYIDFLNVVTCVSCKHNTRGQHCQHCRLGYYRNGSAELDDENVCIECNCNQIGSVHDRCNETGFCECREGAAGPKCDDCLPTHYWRQGCYPNVCDDDQLLCQNGGTCLQNQRCACPRGYTGVRCEQPRCDPADDDGGLDCDRAPG
notes: as for B1

Experiments:
[1] = molecular target: T3, human Netrin1, recombinant AVEXIS protein (biotinylated when immobilised) (human, UniProt O95631 25-604); assay: AVEXIS, prey NTN1 on bait NTNG1
T3 construct: also called NTN1
Excerpt: (§1) The Matn4-bait served as an internal prey-protein control and was used for normalization of the A486 nm values; conditioned medium (CM) serves as negative control; n=3.

[2] = molecular target: T4, human Netrin-3, AVEXIS protein (human, UniProt O00634 28-580); assay: AVEXIS, prey NTN3 on bait NTNG1
T4 construct: not shown: AVEXIS tag (bait or prey)
T4 sequence (O00634 28-580): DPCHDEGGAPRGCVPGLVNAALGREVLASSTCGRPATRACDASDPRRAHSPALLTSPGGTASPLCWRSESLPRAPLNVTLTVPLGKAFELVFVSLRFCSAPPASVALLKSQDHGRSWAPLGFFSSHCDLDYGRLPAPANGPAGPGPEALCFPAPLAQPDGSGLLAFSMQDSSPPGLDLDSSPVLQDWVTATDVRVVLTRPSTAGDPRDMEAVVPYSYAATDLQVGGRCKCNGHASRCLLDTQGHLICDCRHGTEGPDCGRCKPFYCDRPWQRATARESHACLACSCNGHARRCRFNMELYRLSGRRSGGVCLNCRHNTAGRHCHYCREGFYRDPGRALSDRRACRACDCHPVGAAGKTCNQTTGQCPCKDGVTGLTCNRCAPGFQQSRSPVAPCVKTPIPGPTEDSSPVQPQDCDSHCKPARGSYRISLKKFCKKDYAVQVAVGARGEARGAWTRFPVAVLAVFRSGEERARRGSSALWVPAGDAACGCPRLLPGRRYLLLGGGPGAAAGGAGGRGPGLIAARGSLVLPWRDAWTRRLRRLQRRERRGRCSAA
Excerpt: as §1

[3] = molecular target: B2; assay: AVEXIS, prey NTN4 on bait NTNG1
Excerpt: as §1

[4] = molecular target: the molecule itself; assay: AVEXIS, prey NTNG1 on bait NTNG1
Excerpt: as §1

[5] = molecular target: B3; assay: AVEXIS, prey NTNG1 on bait NTNG2
Excerpt: as §1

[6] = molecular target: T3, human Netrin1, recombinant AVEXIS …; assay: AVEXIS, prey on bait NTN1; white = No binding
Excerpt: as §1

[7] = molecular target: T4, human Netrin-3, AVEXIS protein; assay: AVEXIS, prey on bait NTN3; white = No binding
Excerpt: as §1

[8] = molecular target: B2; assay: AVEXIS, prey on bait NTN4; white = No binding
Excerpt: as §1

[9] = molecular target: the molecule itself; assay: AVEXIS, prey on bait NTNG1; white = No binding
Excerpt: as §1

[10] = molecular target: B3; assay: AVEXIS, prey on bait NTNG2; white = No binding
Excerpt: as §1

[11] = molecular target: T5, biotinylated recombinant human UNC5B (human, UniProt Q8IZJ1 27-377); assay: AVEXIS, prey on bait UNC5B; white = No binding
T5 construct: Made in HEK293-6E and immobilised on an SA chip
Excerpt: as §1

[12] = molecular target: T1, human DRAXIN, AVEXIS prey or bait …; assay: AVEXIS, prey on bait DRAXIN; white = No binding
Excerpt: as §1

[13] = molecular target: T2, human DRAXIN 21 amino acid Netrin …; assay: AVEXIS, prey on bait DRAXIN 21aa; white = No binding
Excerpt: as §1

[14] = molecular target: T6, Matn4 ECD, mono-biotinylated bait protein (positive control); assay: AVEXIS, prey on bait Matn4 (+), positive control for the prey; dark = Binding
T6 construct: extracellular domain; also called Matn4-bait
Excerpt: as §1

[15] = molecular target: T3, human Netrin1, recombinant AVEXIS …; assay: AVEXIS, prey NTN1 on bait NTN4
Excerpt: as §1

[16] = molecular target: the molecule itself; assay: AVEXIS, prey NTN4 on bait NTN4
Excerpt: as §1

[17] = molecular target: the molecule itself; assay: AVEXIS, prey on bait NTN4; white = No binding
Excerpt: as §1

[18] = molecular target: B1; assay: AVEXIS, prey on bait NTNG1; white = No binding
Excerpt: as §1

[19] = molecular target: T3, human Netrin1, recombinant AVEXIS …; assay: AVEXIS, prey NTN1 on bait NTNG2
Excerpt: as §1

[20] = molecular target: T4, human Netrin-3, AVEXIS protein; assay: AVEXIS, prey NTN3 on bait NTNG2
Excerpt: as §1

[21] = molecular target: B2; assay: AVEXIS, prey NTN4 on bait NTNG2
Excerpt: as §1

[22] = molecular target: the molecule itself; assay: AVEXIS, prey NTNG2 on bait NTNG2
Excerpt: as §1

[23] = molecular target: the molecule itself; assay: AVEXIS, prey on bait NTNG2; white = No binding
Excerpt: as §1

Row | Binder | A486nm [6] | A486nm [7] | A486nm [8] | A486nm [10] | A486nm [11] | A486nm [12] | A486nm [13] | A486nm [14] | A486nm [18] | other results
1 | B1 | 0.062 | 0.064 | 0.066 | 0.061 | 0.061 | 0.061 | 0.063 | 0.254 | – | binding result [1]: no binding; binding result [2]: no binding; binding result [3]: no binding; binding result [4]: no binding; binding result [5]: no binding; A486nm [9]: 0.062
2 | B2 | 0.067 | 0.065 | – | 0.063 | 0.063 | 0.063 | 0.067 | 0.235 | 0.065 | binding result [15]: no binding; binding result [16]: no binding; A486nm [17]: 0.068
3 | B3 | 0.06 | 0.062 | 0.063 | – | 0.061 | 0.06 | 0.063 | 0.201 | 0.061 | binding result [19]: no binding; binding result [20]: no binding; binding result [21]: no binding; binding result [22]: no binding; A486nm [23]: 0.062
